The nature of this series: soluble on expression in E. coli; label from the status in PepcDB or PDB records.
In the case of “MSLSSLEGQENSFTINSVDMKSLPDWTVQNGKNLTLQCFADVSTTSHVKPQHQMLFYKDDVLFYNISSMKSTESYFIPEVRIYDSGTYKCTVIVNNKEKTTAEYQLLVEGVPSPRVTLDKKEAIQGGIVRVNCSVPEEKAPIHFTIEKLELNEKMVKLKREKNSRDQNFVILEFPVEEQDRVLSFRCQARIISGIHMQTSESTKSELVTVTESFSTPKFHISPTGMIMEGAQLHIKCTIQVTHLAQEFPEIIIQKDKAIVAHNRHGNKAVYSVMAMVEHSGNYTCKVESSRISKVSSIVVNITELFSKPELESSFTHLDQGERLNLSCSIPGAPPANFTIQKEDTIVSQTQDFTKIASKSDSGTYICTAGIDKVVKKSNTVQIVVCEMLSEGHHHHHH”, the “soluble on expression in E. coli” value is recorded as “not soluble”.

For the sequence “MTLNKTDRIVITLGKQIVHGKYVPGSPLPAEAELCEEFATSRNIIREVFRSLMAKRLIEMKRYRGAFVAPRNQWNYLDTDVLQWVLENDYDPRLISAMSEVRNLVEPAIARWAAERATSSDLAQIESALNEMIANNQDREAFNEADIRYHEAVLQSVHNPVLQQLSIAISSLQRAVFERTWMGDEANMPQTLQEHKALFDAIRHQDGDAAEQAALTMIASSTRRLKEIT”, the “soluble on expression in E. coli” value is recorded as “not soluble”.

As to “MSLRLEGVVVPLITPFLEDYSIDKEGLKWLVSYLSENGVNGIFVNSSVGEFASLTLDEMKLVTKIALDSRKSYSTLIFAGASTNFTEETIKLAKDFKDMGVDAIVVMAPYFFKVREKELLDHFSMIAEKVDLPIIIYNIPLFTGIDIPISVYKMLVSQHSNIIGTKVTLDSLIFFKKLISEIREIRKDFSILTGFDEYLLPLLYMGGNGGVMGLANAIPKLHLKVYESWKNGNLSDANKYWRNVLNLTDIYDYCNSYTASIKLLLKVLNMPIKNVVRPPLSICEEESKIRGMIKDLSSFLTNSEGHHHHHH”, the “soluble on expression in E. coli” value was “soluble”.

With “GAQNQDCAFFFPNQEGEQITRNCYTADGKLTNILVYRVDQAYEYPSGMEVVANYTFADAAGKTLNSGQMVARCSDGNFSMSMGDVATFPTALNMMNADVYMMGDLMNYPDAFSNPMNPGDDDEFDDGTLRLYQKGNKNNRAEISVFDREFVTTETVNTPAGAFYCTKVKYEMNIWTPKETIKGYGYEWYAPNIGIVRSEQYNNKKELQSYSVLERIKK”, the “soluble on expression in E. coli” value is “soluble”.

For the sequence “MSETIEIDELVFSVKRSTRRRTVGVTVERDKSLVAHLPQGVALDVATRLIASKLLWVHQKLAEHGETARDDVFRIPEFVDGEGFHLLGKHYRLKLVDVPKNVTGVPSVRFEGDRILLRREQAASGGKRIEEYYTRAAHPYLNETVQRWKRIVGVEPGRFVQVMDLGYRWGSCSEDGTLNFHWRTMQLPPRIIEYVVVHELVHIKVPNHSEKFWKMIGSVMPDYESRKAWLKQKGGEL”, the “soluble on expression in E. coli” value was “soluble”.

Turning to “MGSDKIHHHHHHMKLPTNSILISLKIGIVSDGQYGERAFEQIRRRFPTEWILLPYPSSPVVDEIELTIPPCDLYISYLRHPDIAMELIRTGIPALLGINLGPGFIAQAHEFNPAVIGPETMCSVLPNTKFCQVNEYAKVFGRPVFYLVMDGDRIVWCKTIRGSPCGSTDAAASEISGQILDQEALSRFALSICHNCRAPRFGKTCDKEKAGIIHLEELMRALKGVNPKKWEELIQVLEKIGCSFPNE”, the “soluble on expression in E. coli” value is reported as “not soluble”.

In the case of “MGSDKIHHHHHHMSVECFVTGGSGFVGQHLLAGLTAQGHKTWVLMRSPGNIERLKEQVGQLGGNPEYIHAVEGDISQEGLGLSEADKERVTSAAVFFHLAAQFSWGLTPERARTVNVQGALSVARLAASQRIRLLMVGGFMLQNLNHLASIGVDTQCPENTNWPAVYARVGGYEGSKLESHFAVIRYMQDADADYTIVHPATVCGHSENGHILDGQPLAELIRNLAQGRFKAIPGSASHWLPLVSVDYLVKMITCVAFDPSMANRQVLALYERTPNLQGMLGQIADTLKVKAPHRHIPIGLLRSILTIPGLATRLAISAESLNFIQTQRFDMGNSRQLERKYQFTHPDMTQALENTVRYVNGSLMKKSKSEGAGQRG”, the “soluble on expression in E. coli” value is listed as “not soluble”.

Regarding “YSGLHLCESHLCRAVTKRVRRRIREDGLVSDDATVEDPETWVIGLSGGKDSVVLTQILHDTFAEDPRIELVALSIHEGIEGYRDASLEACEELTDDLGIEHVTVSYAEEFGVQMDDVVEDDPEGMAACAYCGVFRRDLLSKYAEELDADKLLTGHNLDDEAETALMNFLEGDISQIAKHFEASLGPFDSSADAPTEQTREAQDHHIPRAKPLRDIPEKEVALYARFEDLPAHITEC”, the “soluble on expression in E. coli” value is listed as “not soluble”.

Regarding “MAHHHHHHMSQQQWTPDQRRQQIAEMLRNKGVICRDFLFTGRCSRSPTCPYMHVANGETRPVPWSVCTFFTQGKCLRDGCSFFHGTQAQLEELHASGAPVYRPQDYMKIAVPPAEYLNADGSIATHLSIAAVPMTPALHVVHGPTVSHENAVNSFQPVLVMQPNSQAIAPTMFASQGRTAHSTPSHFAFYANAPITSQMPTHSAATVLQPTLHTVQPTTFYQAANALLAQPQQHFAPVPQLNTPQQHQLTQQALGSRVYFHIQPH”, the “soluble on expression in E. coli” value is recorded as “not soluble”.

Turning to “MGSDKIHHHHHHMSDQTRQPNSSSGLSQLLTGRLRSKLAAGVTHLTSGSGPTLDYSSPPGDPGLFGPDSVCWKVHADFTSMMTGGISALLLQALHPLALAGVWDHSAFRTDILGRLRRTATFIAGTTYGNRHDALALVERVKRIHLGVSGVAPDGRPYRASEPALLTWVHVAEVSSFMTAHLRYVNPLLPVAAQDQYFAETARIAEMLGASDIPRSRAGIDAYLLAMQPELVASERTRELVRILMNAPAPSASMRPAGVLMLNAGVDLLPDWAQAMLGFQRYAALRRAVTRPGVRLVAPVIRWALVNGVSKRARRRVAAGVREPE”, the “soluble on expression in E. coli” value is “not soluble”.

On to “MAHHHHHHMATLTEDEIAPSAIAAERERLQEATQHVAELERRLDALQRELEAACTRREQLLLSVQWRELMAAVNADEDVYAVAERMMDAFAAFRESLVEPENYLQEQREEVLKEDDIVPYSDTDDYADFSGVEAVVEELLAAVKEQLESHAAAPPSSFRQTKHSSLRGSFASDERPKHPDGESAEAHKVSADARRQALLKLLVITVLMGRVEQYCRFKSISDASNVPQSEAEEMRDGVASVWQWLFHEQPGVLTAEEGAEWKHIAGAFLGDSYTVAP”, for which the “soluble on expression in E. coli” value is reported as “not soluble”.

For “MAAIHINHDVFNKYHTNGKLRLTTGYVQEAIENNGYPGHDGIVQVLKGKVEQGEQLGHAFTFRIRISDGVFQYNALMSADIDDQIKREVEHLVEGTIIALTKFEIYDQGEGAKNCFLIKGYKILSRYHQVLTSPEVKPRSHSGKPDEHKGYRPNIIIEDVWPEAEGMAADYQENMANPPAAKAPKREFGEEASYNRAAAPEATRARAVPPPARRTASNTERGVMPIAMVTPYVSNFKIHGMVSRKEEIRTFPAKNTKVFNFEITDSNGDTIRCTAFNEVAESLYTTITENLSYYLSGGSVKQANKKFNNTGHDYEITLRSDSIIEAGGELLAAPKLILKRVKLGEIAGYAGQLIDVLVVVEKMDPEATEFTSKAGKSLIKREMELIDESGALVRLTLWGDEATKALVDDYVQKVIAFKGVIPREFNGGFSLGTGSATRIISVPEIAGVSELYDWYANVKPTTEVKMMSQAAGGSNEAPRTIAGLQEMQFGKDSDKGDYATVKAMITRVNPTNALYRGCASEGCQKKLVGENGDYRCEKCNKNMNKFKWLYMMQFELSDETGQVYVTAFGDSAAKIVGKSAAELGELHDESPDEYNAIFERLQFVPKMWRLRCKMDSYNEEVRQKMTVYGVDDVNQDKYIENLKQMIEQMQQMSDY”, the “soluble on expression in E. coli” value is listed as “soluble”.

For “VGPKTGEENQVLVPNLNPTPENLEVVGDGFKITSSINLVGEEEADENAVNALREFLTANNIEINSENDPNSTTLIIGEVDDDIPELDEALNGTTAENLKEEGYALVSNDGKIAIEGKDGDGTFYGVQTFKQLVKESNIPEVNITDYPTVSARGIVEGFYGTPWTHQDRLDQIKFYGENKLNTYIYAPKDDPYHREKWREPYPESEMQRMQELINASAENKVDFVFGISPGIDIRFDGDAGEEDFNHLITKAESLYDMGVRSFAIYWDDIQDKSAAKHAQVLNRFNEEFVKAKGDVKPLITVPTEYDTGAMVSNGQPRAYTRIFAETVDPSIEVMWTGPGVVTNEIPLSDAQLISGIYNRNMAVWWNYPVTDYFKGKLALGPMHGLDKGLNQYVDFFTVNPMEHAELSKISIHTAADYSWNMDNYDYDKAWNRAIDMLYGDLAEDMKVFANHSTRMDNKTWAKSGREDAPELRAKMDELWNKLSSKEDASALIEELYGEFARMEEACNNLKANLPEVALEECSRQLDELITLAQGDKASLDMIVAQLNEDTEAYESAKEIAQNKLNTALSSFAVISEKVAQSFIQEALSFDLTLINPRTVKITASSEETSGENAPASFASDGDMNTFWHSKWSSPAHEGPHHLTLELDNVYEINKVKYAPRQDSKNGRITGYKVSVSLDGENFTEVKTGTLEDNAAIKFIEFDSVDAKYVRLDVTDSVSDQANGRGKFATAAEVNVHG”, the “soluble on expression in E. coli” value was “soluble”.

With “MGSDKIHHHHHHMNRVILFHFHFFKNAGSAVDYILEKNFGDRFVKKEFKLWPYYENIKEVIKWIENESDAVAFSSHTARLFDSTLLERRGIKIIPIIFVRHPIIRIHSAYHYERKQVDIFRPGPVIARNTDFKGYVEIRLAIPRQEFNVSNFHVFRLADMLHGEKNMKPLEKALIALKRLPFIGLVEEFEKSMTKLEETVREYFPEFKASVIRTNVQFSPDMPLEERLKIIKNEVGKDFYKKLMEINEEDMVLWEKVVDMYKEGF”, the “soluble on expression in E. coli” value is reported as “not soluble”.

With “MGSDKIHHHHHHMKLSGWGRFPNVDCTVRVARSEVDVRAAVAASPLIARGNGRAYGDAALNRGLTLDMTGMDRMLSFEDGVLVAEAGVLLGDIIHTFLPRGWFPMVTPGTKYVSLGGAIAADVHGKNHHLDGSFRSCVDWVDLMGPDGAVTRVTREDDLFDWTLGGMGLTGVILRAQIRLRAVETSFIAQETRALTSLTDTLEAFEDTLDALYSVAWIDCSDGPHHGHSLLLLGRHATPGDLPKRQKPLEVKRRAKLPVPFGAPPFLFRGLWLRALNGIYWRRGAKRAGHTIVDWDSYFYPLDALANWNRLYGRNGFLQFQCALPLETAADGLAALMAEIAASQSGSVLSVLKRFGPQSGHFSFPMPGYTLALDFPANERSLALMERLDAITLAHKGRFYLAKDARMPEAVVKADARAEAFAAMRTQMGLRDRFASEQSERLGL”, the “soluble on expression in E. coli” value is “not soluble”.

Consider “MGSDKIHHHHHHMALEPQIKSAPTPVILIVEPYGGSIRQQNPNLPMVFWDDAALTRGDGIFETLLIRDGHACNVRRHGERFKASAALLGLPEPILEDWEKATQMGIESWYSHPNAGEASCTWTLSRGRSSTGLASGWLTITPVSSDKLAQREHGVSVMTSSRGYSIDTGLPGIGKATRGELSKVERTPAPWLTVGAKTLAYAANMAALRYAKSNGFDDVIFTDGDRVLEGATSTVVSFKGDKIRTPSPGGDILPGTTQAALFAHATEKGWRCKEKDLSIDDLFGADSVWLVSSVRGPVRVTRLDGHKLRKPDNEKEIKALITKALG”, for which the “soluble on expression in E. coli” value is given as “not soluble”.

Consider “MGSDKIHHHHHHMELSQNAPNELEYIREFLNTWRIPNDTREAIDLLQTEEDIKLFMKEYFHEEFPFHTIEELKSFREDIRMTIEGEGSLEKWLEKYPFHVYIKEDMKGITYEPIHEETVYTKVLSIVLIAVQENLWGRLKACPDCRWVFYDNSRNGSKRWCGMYAGEEGGRACGTIAKVKNYRAKRKGRSGYNV”, for which the “soluble on expression in E. coli” value is “not soluble”.

Turning to “MNTLLSLMNSIEQEARTIYDSYDAKKKALADKKEEELKQLFLEYEQETQLLLEAKREVFFEANRQEQKASKKRLATQQLALHAILEEHKLTVVRELVDKVVETYGH”, the “soluble on expression in E. coli” value was “not soluble”.

With “MGHHHHHHSHPLKMETSGMTTPSLKTDGGRRTATSPPPTTSQTIISTIPSTAMHTRSTAAPIPILPERGVSLFPYGADAGDLEFVRRTVDFTSPLFKPATGFPLGSSLRDSLYASQAGTLWPWWLRSGTMLTSPLVGGPHFIRNTRRSMVNTAC”, the “soluble on expression in E. coli” value was “not soluble”.

(Values after the DeepSol protein solubility set.)
